Laboratory results published in the supplement of paper PMC9112550, “Optimization of the antimicrobial peptide Bac7 by deep mutational scanning” (BMC Biology, 2022).

Test system: Escherichia coli TOP10
Assay: shrunken log2 fold change of peptide-encoding DNA abundance (4.5 h post-induction vs induction); higher = less antimicrobial activity (less host growth inhibition)
Settings: time post-induction: 4.5 h; library: site-saturation at positions 5, 18, 19, 20
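Also: peptides expressed intracellularly from a pBAD plasmid library in pooled LB shake-flask culture, induced with 0.3% L-arabinose, DNA abundance read by NGS, three biological replicates, DESeq2 with apeglm shrinkage.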

Sequence	shrunken log2 fold change
RRIRDRPPRLPRPRPRPAVLPRP	-0.014
RRIRARPPRLPRPRPRPINKPRP	-0.311
RRIRIRPPRLPRPRPRPAEEPRP	-0.084
RRIRPRPPRLPRPRPRPHRHPRP	-0.47
RRIRNRPPRLPRPRPRPQICPRP	-0.0199
RRIRWRPPRLPRPRPRPIYAPRP	-0.0827
RRIRIRPPRLPRPRPRPQQWPRP	-0.421
RRIRIRPPRLPRPRPRPEIFPRP	-0.0951
RRIRARPPRLPRPRPRPPLRPRP	1.63
RRIRKRPPRLPRPRPRPPMYPRP	-0.0675
RRIRTRPPRLPRPRPRPEYEPRP	-0.0445
RRIRSRPPRLPRPRPRPTCKPRP	0.107
RRIRPRPPRLPRPRPRPHCTPRP	-0.479
RRIRLRPPRLPRPRPRPCTSPRP	-0.114
RRIRKRPPRLPRPRPRPAYWPRP	0.424
RRIRTRPPRLPRPRPRPMPDPRP	-0.0705
RRIRCRPPRLPRPRPRPPKDPRP	0.261
RRIRRRPPRLPRPRPRPVNAPRP	0.37
RRIRFRPPRLPRPRPRPCVKPRP	-0.123
RRIRTRPPRLPRPRPRPMRNPRP	0.356
RRIRARPPRLPRPRPRPYQVPRP	-0.327
RRIRKRPPRLPRPRPRPNVNPRP	-0.0135
RRIRRRPPRLPRPRPRPQEHPRP	1.34
RRIRLRPPRLPRPRPRPNEMPRP	0.0287
RRIRNRPPRLPRPRPRPGYVPRP	-0.077

Sequence	shrunken log2 fold change
RRIRVRPPRLPRPRPRPRTEPRP	0.165
RRIRKRPPRLPRPRPRPWPHPRP	0.298
RRIRLRPPRLPRPRPRPDDKPRP	-0.525
RRIRYRPPRLPRPRPRPSEHPRP	-0.488
RRIRMRPPRLPRPRPRPLDFPRP	-0.129
RRIRSRPPRLPRPRPRPNGEPRP	0.0431
RRIRYRPPRLPRPRPRPEKIPRP	0.0147
RRIRSRPPRLPRPRPRPPFYPRP	-0.154
RRIRLRPPRLPRPRPRPTFKPRP	-0.0433
RRIRPRPPRLPRPRPRPGQNPRP	0.0194
RRIRARPPRLPRPRPRPWSYPRP	-0.0574
RRIRKRPPRLPRPRPRPQGIPRP	0.114
RRIRPRPPRLPRPRPRPIITPRP	-0.587
RRIRGRPPRLPRPRPRPEAKPRP	1.76
RRIRFRPPRLPRPRPRPSIIPRP	-0.279
RRIRDRPPRLPRPRPRPTASPRP	0.381
RRIRMRPPRLPRPRPRPGEPPRP	0.163
RRIRTRPPRLPRPRPRPLTIPRP	-0.315
RRIRVRPPRLPRPRPRPERLPRP	-0.0657
RRIRHRPPRLPRPRPRPSTIPRP	-0.0522
RRIRVRPPRLPRPRPRPQWTPRP	-0.17
RRIRTRPPRLPRPRPRPPTQPRP	0.282
RRIRMRPPRLPRPRPRPTYEPRP	-0.16
RRIRNRPPRLPRPRPRPEYMPRP	-0.0146
RRIRVRPPRLPRPRPRPEVLPRP	0.244

Sequence	shrunken log2 fold change
RRIRFRPPRLPRPRPRPIINPRP	-0.869
RRIRDRPPRLPRPRPRPAGSPRP	0.19
RRIRTRPPRLPRPRPRPLKSPRP	-0.0242
RRIRYRPPRLPRPRPRPDVPPRP	-0.0784
RRIRTRPPRLPRPRPRPSPQPRP	-0.133
RRIRCRPPRLPRPRPRPNKYPRP	-0.324
RRIRSRPPRLPRPRPRPVELPRP	0.105
RRIRVRPPRLPRPRPRPQQTPRP	0.0227
RRIRYRPPRLPRPRPRPNCSPRP	-0.973
RRIRPRPPRLPRPRPRPPRAPRP	0.591
RRIRMRPPRLPRPRPRPATTPRP	0.538
RRIRDRPPRLPRPRPRPFRMPRP	-0.125
RRIRKRPPRLPRPRPRPWDNPRP	0.0448
RRIRTRPPRLPRPRPRPVTHPRP	-0.0683
RRIRPRPPRLPRPRPRPYQHPRP	-0.592
RRIRWRPPRLPRPRPRPYNGPRP	-0.668
RRIRLRPPRLPRPRPRPNMYPRP	-0.284
RRIRTRPPRLPRPRPRPCRCPRP	-0.00986
RRIRYRPPRLPRPRPRPHNSPRP	-0.753
RRIRYRPPRLPRPRPRPEILPRP	-0.288
RRIRGRPPRLPRPRPRPIYHPRP	-0.1
RRIRDRPPRLPRPRPRPKICPRP	0.0258
RRIRERPPRLPRPRPRPHKVPRP	-0.361
RRIRARPPRLPRPRPRPSDNPRP	-0.183
RRIRPRPPRLPRPRPRPEYMPRP	-0.193
